The assay deals with T1, N-terminal fluorescein-labeled ubiquitin (UniProt P0CG48 1-76, fluorescein on the N-terminus).
T1 construct: source: bought: Anaspec
Kind of assay: fluorescence polarisation; 1 uM fluorescein-labeled ubiquitin with varied concentrations of UBE3A HECT domain, 384-well plate, 30 °C; one-site specific binding model. The following applies: both partners purified. For orientation: Fluorescence polarisation rises when a labelled molecule tumbles more slowly, as on binding a larger partner.

This passage reports Kd results from publication PMC8635412, “Identification of disease-linked hyperactivating mutations in UBE3A through large-scale functional variant analysis” (Nature Communications, 2021).

Substitutions are numbered along the chain they refer to. Numbers in names are those of the source.

B1: UBE3A HECT domain, wild type (domain or fragment, human, UniProt Q05086-2 495-852, looked up)
chain: QLNPYLRLKVRRDHIIDDALVRLEMIAMENPADLKKQLYVEFEGEQGVDEGGVSKEFFQLVVEEIFNPDIGMFTYDESTKLFWFNPSSFETEGQFTLIGIVLGLAIYNNCILDVHFPMVVYRKLMGKKGTFRDLGDSHPVLYQSLKDLLEYEGNVEDDMMITFQISQTDLFGNPMMYDLKENGDKIPITNENRKEFVNLYSDYILNKSVEKQFKAFRRGFHMVTNESPLKYLFRPEEIELLICGSRNLDFQALEETTEYDGGYTRDSVLIREFWEIVHSFTDEQKRLFLQFTTGTDRAPVGGLGKLKMIIAKNGPDTERLPTSHTCFNVLLLPEYSSKEKLKERLLKAITYAKGFGML
notes: UBE3A, human, HECT domain; residue numbers follow human UBE3A isoform I (NP_001361390.1); Cloned into pRSFDuet-1 with an octa-histidine-GST double tag and a TEV site; also called WT HECT domain; WT UBE3A; not shown: His8, N-terminal, cleaved; GST, N-terminal, cleaved
By Kd is commonly meant the free concentration of one partner at which half of the binding sites on the other are occupied at equilibrium, for simple one-to-one binding. On to B1, for which binding was characterised by a dissociation constant (Kd) of 65.7 ± 28.5 µM.

B2: UBE3A HECT domain Q588E (domain or fragment, human, UniProt Q05086-2 1-852, looked up)
chain: B1 chain with Q94E
notes: UBE3A, human, HECT domain with the patient variant Q588E; residue numbers follow human UBE3A isoform I (NP_001361390.1); Made by site-directed mutagenesis of the m1 construct; Q588E is a variant found in individuals (ClinVar); also called Q588E HECT domain; UBE3A Q588E; not shown: His8, N-terminal, cleaved; GST, N-terminal, cleaved
In turn, B2 displayed a Kd of 18 ± 1.5 µM.
